Measurements reported in patent US20190352419A1 (ALX ONCOLOGY, published 2019).
Changes are numbered by the printed parent chain. Numbers in names are those of the source.

T1: BL6 mouse SIRP-α protein (mouse (C57BL/6 strain), UniProt P97797 32-148)
T1 construct: Soluble SPR analyte; also called C57BL/6
T1 sequence: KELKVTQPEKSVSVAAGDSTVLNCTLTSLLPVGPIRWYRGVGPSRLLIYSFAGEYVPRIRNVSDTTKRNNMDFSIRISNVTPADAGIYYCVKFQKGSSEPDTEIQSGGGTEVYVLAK

T2: BALBc mouse SIRP-α protein (mouse (BALB/c strain))
T2 construct: Soluble SPR analyte
T2 chain: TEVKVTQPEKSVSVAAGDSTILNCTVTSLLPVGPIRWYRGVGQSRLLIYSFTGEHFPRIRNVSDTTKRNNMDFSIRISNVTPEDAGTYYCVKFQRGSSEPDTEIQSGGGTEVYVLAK

T3: cynomolgus SIRP-α (SEQ ID NO:11) (cynomolgus, UniProt Q5TFQ8 30-148 (human entry))
T3 construct: 'extracellular domain (e.g., the D1 domain)' of a cynomolgus SIRP-α polypeptide; soluble SPR analyte; also called cyno1
T3 chain: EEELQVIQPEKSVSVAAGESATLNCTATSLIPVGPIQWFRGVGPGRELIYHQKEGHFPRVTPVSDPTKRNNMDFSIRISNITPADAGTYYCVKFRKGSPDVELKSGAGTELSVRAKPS

T4: NOD mouse SIRP-α protein (mouse (NOD strain))
T4 construct: Soluble SPR analyte
T4 chain: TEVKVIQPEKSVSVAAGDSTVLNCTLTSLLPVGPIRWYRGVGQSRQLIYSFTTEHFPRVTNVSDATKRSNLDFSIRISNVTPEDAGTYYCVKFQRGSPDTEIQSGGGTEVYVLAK

B1: PC301 (antibody, human IgG1, lambda, N297A)
heavy: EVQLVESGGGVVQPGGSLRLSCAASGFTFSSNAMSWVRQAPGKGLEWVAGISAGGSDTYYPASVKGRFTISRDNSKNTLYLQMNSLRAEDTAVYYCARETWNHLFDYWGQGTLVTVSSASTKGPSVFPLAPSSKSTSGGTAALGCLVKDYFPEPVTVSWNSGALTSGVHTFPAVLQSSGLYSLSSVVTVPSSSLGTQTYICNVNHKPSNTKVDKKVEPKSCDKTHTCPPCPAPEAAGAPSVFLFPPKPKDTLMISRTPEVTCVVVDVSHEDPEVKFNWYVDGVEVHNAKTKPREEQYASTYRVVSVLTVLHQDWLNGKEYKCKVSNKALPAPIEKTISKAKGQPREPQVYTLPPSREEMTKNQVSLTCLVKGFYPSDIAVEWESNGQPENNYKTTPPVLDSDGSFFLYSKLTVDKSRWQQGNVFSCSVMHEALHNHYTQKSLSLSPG
light: SYELTQPPSVSVSPGQTARITCSGGSYSSYYYAWYQQKPGQAPVTLIYSDDKRPSNIPERFSGSSSGTTVTLTISGVQAEDEADYYCGGYDQSSYTNPFGGGTKLTVLGQPKAAPSVTLFPPSSEELQANKATLVCLISDFYPGAVTVAWKADSSPVKAGVETTTPSKQSNNKYAASSYLSLTPEQWKSHRSYSCQVTHEGSTVEKTVAPTECS
notes: also called antibody PC301
B2: PC367 (antibody, human IgG2, lambda, N297A)
heavy: EVQLVESGGGVVQPGGSLRLSCAASGFTFSSNAMSWVRQAPGKGLEWVAGISAGGSDTYYPASVKGRFTISRDNSKNTLYLQMNSLRAEDTAVYYCARETWNHLFDYWGQGTLVTVSSASTKGPSVFPLAPCSRSTSESTAALGCLVKDYFPEPVTVSWNSGALTSGVHTFPAVLQSSGLYSLSSVVTVPSSNFGTQTYTCNVDHKPSNTKVDKTVERKCCVECPPCPAPPVAGPSVFLFPPKPKDTLMISRTPEVTCVVVDVSHEDPEVQFNWYVDGVEVHNAKTKPREEQFASTFRVVSVLTVVHQDWLNGKEYKCKVSNKGLPAPIEKTISKTKGQPREPQVYTLPPSREEMTKNQVSLTCLVKGFYPSDIAVEWESNGQPENNYKTTPPMLDSDGSFFLYSKLTVDKSRWQQGNVFSCSVMHEALHNHYTQKSLSLSPG
light: B1 light with K104Q, A114N, S116T, S154G, T165K, N171S, N172D
notes: AB21 MutAll VH + human IgG2 N297A; Hum1 VL version 2 + IGLC1 SD light chain
B3: PC334 (antibody, human IgG1, lambda, N297A)
heavy: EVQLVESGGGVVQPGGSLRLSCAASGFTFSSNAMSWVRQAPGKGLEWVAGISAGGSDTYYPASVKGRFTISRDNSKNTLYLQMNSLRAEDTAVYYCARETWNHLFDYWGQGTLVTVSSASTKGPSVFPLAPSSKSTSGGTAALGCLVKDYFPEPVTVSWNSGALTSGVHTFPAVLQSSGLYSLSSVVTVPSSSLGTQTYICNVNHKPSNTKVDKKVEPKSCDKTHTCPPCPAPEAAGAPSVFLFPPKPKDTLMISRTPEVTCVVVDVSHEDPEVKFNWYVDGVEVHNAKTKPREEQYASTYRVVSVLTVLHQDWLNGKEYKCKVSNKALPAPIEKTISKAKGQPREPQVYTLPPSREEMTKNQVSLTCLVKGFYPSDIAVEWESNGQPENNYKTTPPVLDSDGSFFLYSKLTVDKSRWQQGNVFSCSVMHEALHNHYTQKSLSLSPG
light: B1 light with A114N, S116T, S154G, T165K
notes: Original Hum1 VL + IGLC1 light chain; also called antibody PC334; Hum1_IGLC1
B4: Hum8/AB21_HC_Mutall (antibody, V domains shown)
VH: EVQLVESGGGVVQPGGSLRLSCAASGFTFSSNAMSWVRQAPGKGLEWVAGISAGGSDTYYPASVKGRFTISRDNSKNTLYLQMNSLRAEDTAVYYCARETWNHLFDYWGQGTLVTVSS
VL: SYELTQPPSVSVSPGQTARITCSGGAYSSYYYAWYQQKPGQAPVLVIYSDSKRPSGIPERFSGSSSGTTVTLTISGVQAEDEADYYCGGYDQSSYTNPFGGGTKLTVL
B5: Hum9/AB21_HC_Mutall (antibody, V domains shown)
VH: B4 VH
VL: B4 VL with S51D

What was measured:
[1] = molecular target: T1, BL6 mouse SIRP-α protein; assay: binding affinity KD (SPR; method not restated in Example 7)
[2] = molecular target: T5, human SIRP-α v1 (human, UniProt P78324 31-149); assay: as above
T5 construct: used as soluble SPR analyte; also called Human V1; hSIRPa v1
T5 sequence (P78324 31-149): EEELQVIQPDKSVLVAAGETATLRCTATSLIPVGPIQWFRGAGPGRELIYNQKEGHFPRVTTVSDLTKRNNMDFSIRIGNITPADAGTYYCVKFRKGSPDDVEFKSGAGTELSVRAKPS

[3] = molecular target: T2, BALBc mouse SIRP-α protein; assay: as above
[4] = molecular target: T3, cynomolgus SIRP-α (SEQ ID NO:11); assay: as above
[5] = molecular target: T4, NOD mouse SIRP-α protein; assay: as above
[6] = molecular target: T6, human SIRP-β (human, UniProt O00241 30-148); assay: as above
T6 construct: also called SIRPb; hSIRPb
T6 sequence (O00241 30-148): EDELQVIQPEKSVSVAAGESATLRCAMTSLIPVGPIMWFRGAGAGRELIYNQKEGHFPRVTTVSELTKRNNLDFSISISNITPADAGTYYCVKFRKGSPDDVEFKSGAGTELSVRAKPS

[7] = molecular target: T7, human SIRP-α v2 (human); assay: as above
T7 construct: soluble SPR analyte; also called Human V2; hSIRPa v2
T7 sequence (chain, as listed by the source): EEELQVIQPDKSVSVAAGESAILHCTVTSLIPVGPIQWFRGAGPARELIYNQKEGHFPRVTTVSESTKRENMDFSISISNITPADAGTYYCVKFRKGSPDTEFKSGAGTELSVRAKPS

[8] = molecular target: T8, human SIRP-γ (human, UniProt Q9P1W8 29-147); assay: as above
T8 construct: also called SIRPg; hSIRPg
T8 sequence (Q9P1W8 29-147): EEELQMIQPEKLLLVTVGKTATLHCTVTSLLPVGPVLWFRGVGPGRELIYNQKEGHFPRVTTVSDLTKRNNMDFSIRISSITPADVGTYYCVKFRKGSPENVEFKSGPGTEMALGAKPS

[9] = molecular target: T5, human SIRP-α v1; assay: SPR (refers to Table M)
[10] = molecular target: T1, BL6 mouse SIRP-α protein; assay: SPR KD (ProteOn XPR36), antibody on chip, SIRP analyte in solution

Row | Binder | Kd [1] [nM] | Kd [2] [pM] | Kd [3] [nM] | Kd [4] [nM] | Kd [5] [nM] | Kd [6] [nM] | Kd [7] [nM] | Kd [8] [nM] | Kd [9] [nM] | Kd [10] [µM]
1 | B1 | 9.25 | 2.06 | 9.53 | 0.0389 | 2.93 | 0.0122 |  |  |  | 
2 | B2 | 19.7 | 2.11 | 7.87 | 0.0501 | 6.37 | 0.0327 | 0.0823 | 0.0352 |  | 
3 | B3 | 3.29 | 15.1 | 6.75 | 0.0774 | 8.19 | 0.0371 | 0.0438 | 0.0452 |  | 
4 | B4 |  |  |  |  |  |  |  |  | ≤ 0.01 | 415
5 | B5 |  |  |  |  |  |  |  |  | ≤ 0.01 | 533
